The text below walks through data of patent publication EP4725963A1 (Jiangsu Hengrui Pharmaceuticals Co., Ltd., dated 2026).

Residue numbers refer to the chain shown, from its start. Where two headings read alike, the source gives them in different places.

What all share (assay): cell-based or functional assay
Assay [1] has as its target T1, human NPR1 full-length protein overexpressed on CHO-K1 cells (human, UniProt P16066 33-1061).
T1 sequence: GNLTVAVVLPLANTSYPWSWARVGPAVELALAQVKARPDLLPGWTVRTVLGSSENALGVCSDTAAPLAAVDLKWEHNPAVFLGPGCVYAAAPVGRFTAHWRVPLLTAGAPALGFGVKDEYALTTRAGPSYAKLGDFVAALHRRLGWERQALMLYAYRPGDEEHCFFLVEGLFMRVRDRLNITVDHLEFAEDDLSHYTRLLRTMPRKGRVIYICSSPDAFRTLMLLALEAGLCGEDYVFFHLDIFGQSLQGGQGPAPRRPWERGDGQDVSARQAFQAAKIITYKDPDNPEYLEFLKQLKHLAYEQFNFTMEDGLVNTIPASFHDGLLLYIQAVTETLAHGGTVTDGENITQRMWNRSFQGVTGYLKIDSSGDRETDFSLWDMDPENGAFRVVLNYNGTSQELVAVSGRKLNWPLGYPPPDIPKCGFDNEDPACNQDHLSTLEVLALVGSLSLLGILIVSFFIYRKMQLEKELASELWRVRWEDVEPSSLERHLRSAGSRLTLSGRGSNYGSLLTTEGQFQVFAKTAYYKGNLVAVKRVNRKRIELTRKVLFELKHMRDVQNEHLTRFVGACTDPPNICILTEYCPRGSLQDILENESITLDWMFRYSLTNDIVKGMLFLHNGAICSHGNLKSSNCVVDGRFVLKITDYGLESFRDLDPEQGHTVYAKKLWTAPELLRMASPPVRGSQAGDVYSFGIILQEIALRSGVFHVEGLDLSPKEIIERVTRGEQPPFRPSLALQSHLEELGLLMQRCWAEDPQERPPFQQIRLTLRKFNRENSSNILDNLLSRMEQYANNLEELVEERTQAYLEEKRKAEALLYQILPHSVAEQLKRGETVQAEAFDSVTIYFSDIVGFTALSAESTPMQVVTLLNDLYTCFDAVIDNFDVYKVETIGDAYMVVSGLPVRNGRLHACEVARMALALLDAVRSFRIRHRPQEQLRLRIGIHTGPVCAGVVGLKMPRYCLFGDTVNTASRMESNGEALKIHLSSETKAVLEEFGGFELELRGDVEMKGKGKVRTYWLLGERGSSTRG

The target in assay [2] is T1, human NPR1 full-length protein …. This is another data set of the same source.
For assay [3] the target is unchanged. This is another data set of the same source.

B1: Hu127H4L1 (antibody, human IgG1, kappa, L234A L235A)
heavy: not shown
light: DIVMTQSPDSLAVSLGERATINCRASESVDSYGNSFMHWYQQKPGQPPKVLIYLASTLESGVPDRFSGSGSRTDFTLTISSLQAEDVAVYYCQQNNEDPLTFGQGTKLEIKRTVAAPSVFIFPPSDEQLKSGTASVVCLLNNFYPREAKVQWKVDNALQSGNSQESVTEQDSKDSTYSLSSTLTLSKADYEKHKVYACEVTHQGLSSPVTKSFNRGEC
Consider B1, for which, in assay [1], the “cGMP production: EC50” value worked out at 45.6 nM, the “cGMP production: Emax” value is 0.6 and the “cGMP production: Emin” value was determined as 0.077.

B2: Hu127H7L3 (antibody, human IgG1, kappa, L234A L235A)
heavy: not shown
light: B1 light with D1N, M4L
With B2, in assay [1], the “cGMP production: EC50” value came to 56.5 nM, the “cGMP production: Emax” value was 0.54 and the “cGMP production: Emin” value turned out to be 0.066.

B3: Hu127H8L3 (antibody, human IgG1, kappa, L234A L235A)
heavy: not shown
light: B1 light with D1N, M4L
Turning to B3, in assay [1], the “cGMP production: EC50” value was found to be 48.6 nM, the “cGMP production: Emax” value was 0.46 and the “cGMP production: Emin” value amounted to 0.072.

B4: Hu127H8L1 (antibody, human IgG1, kappa, L234A L235A)
heavy: not shown
light: B1 light
As to B4, in assay [1], the “cGMP production: EC50” value turned out to be 62.6 nM, the “cGMP production: Emax” value was 0.45 and the “cGMP production: Emin” value was 0.083.

B5: Hu127H7L1 (antibody, human IgG1, kappa, L234A L235A)
heavy: not shown
light: B1 light
With B5, in assay [1], the “cGMP production: EC50” value came out at 55.8 nM, the “cGMP production: Emax” value was 0.5 and the “cGMP production: Emin” value was determined as 0.081.

B6: Hu127H4L3 (antibody, human IgG1, kappa, L234A L235A)
heavy: not shown
light: B1 light with D1N, M4L
For B6, in assay [1], the “cGMP production: EC50” value was 51.4 nM, the “cGMP production: Emax” value was 0.48 and the “cGMP production: Emin” value came to 0.087.

B7: Hu102H5L6 (antibody, human IgG1, kappa, L234A L235A, V domains shown)
VH: DVKLVESGEGLVKPGGSLRLSCAASGFTFSTYGMSWVRQAPGKRLEWVAYISRGGDYIYYADTVKGRFTISRDNAKNSLYLQMNSLRAEDTAVYYCTRDQTTVVVHWYFDVWGQGTTVTVSS
VL: DIQLTQSPSSLSASVGDRVTITCSASSSINYMHWYQQKPGKSPKRWIYDTSKLASGVPSRFSGSGSGTDYTLTISSLQPEDFATYYCHQRNSYTFGGGTKVEIKR
For B7, in assay [2], the “cGMP production: EC50” value is 43.6 nM, the “cGMP production: Emax” value came out at 0.59 and the “cGMP production: Emin” value was 0.21.

B8: Hu135H2L1 (antibody, human IgG1, kappa, L234A L235A, V domains shown)
VH: B7 VH with T28S, F29I, S52N, R53S, D56N, Q100R, V103I
VL: DIQLTQSPSSLSASVGDRVTITCSASSSLNFMHWYQQKPGKSPKRWIYDTSKLASGVPSRFSGSGSGTDYTLTISSLQPEDFATYYCHQRSSTFGGGTKVEIKR
As to B8, in assay [3], the “cGMP production: EC50” value was determined as 186 nM, the “cGMP production: Emax” value is 0.45 and the “cGMP production: Emin” value is 0.143.

B9: Hu135H1L1 (antibody, human IgG1, kappa, L234A L235A, V domains shown)
VH: B7 VH with S52N, R53S, D56N, Q100R, V103I
VL: B8 VL
Take B9: in assay [3], the “cGMP production: EC50” value is 116 nM, the “cGMP production: Emax” value turned out to be 0.43 and the “cGMP production: Emin” value is 0.22.

B10: Hu127H4L5 (antibody, human IgG1, kappa, L234A L235A, V domains shown)
VH: EAYLVQSGAEVKKPGASVKVSCKASGYSFTGYFMNWVRQAPGKGLEWMGRINPYSGDTFYNQKFKGRVTLTVDKSTSTVYMELSSLRSEDTAVYYCARRGYGNRGYWYFDVWGQGTTVTVSS
VL: NIQLTQSPSSLSASVGDRVTITCRASESVDSYGNSFMHWYQQKPGKAPKVLIYLASTLESGVPSRFSGSGSRTDFTLTISSLQPEDFATYYCQQNNEDPLTFGQGTKLEIKR
B10: in assay [1], the “cGMP production: EC50” value came out at 32.4 nM, the “cGMP production: Emax” value was determined as 0.59 and the “cGMP production: Emin” value was found to be 0.068.

B11: Hu127H4L6 (antibody, human IgG1, kappa, L234A L235A, V domains shown)
VH: B10 VH
VL: B10 VL with D17Q, A47P
In the case of B11, in assay [1], the “cGMP production: EC50” value is 38.5 nM, the “cGMP production: Emax” value is 0.54 and the “cGMP production: Emin” value was determined as 0.073.

B12: Hu127H7L5 (antibody, human IgG1, kappa, L234A L235A)
heavy: not shown
light: NIQLTQSPSSLSASVGDRVTITCRASESVDSYGNSFMHWYQQKPGKAPKVLIYLASTLESGVPSRFSGSGSRTDFTLTISSLQPEDFATYYCQQNNEDPLTFGQGTKLEIKRTVAAPSVFIFPPSDEQLKSGTASVVCLLNNFYPREAKVQWKVDNALQSGNSQESVTEQDSKDSTYSLSSTLTLSKADYEKHKVYACEVTHQGLSSPVTKSFNRGEC
Regarding B12, in assay [1], the “cGMP production: EC50” value was found to be 42.6 nM, the “cGMP production: Emax” value was found to be 0.51 and the “cGMP production: Emin” value was determined as 0.068.

B13: Hu127H8L5 (antibody, human IgG1, kappa, L234A L235A)
heavy: not shown
light: B12 light
For B13, in assay [1], the “cGMP production: EC50” value stood at 42 nM, the “cGMP production: Emax” value was 0.43 and the “cGMP production: Emin” value is 0.065.

B14: Hu127H8L6 (antibody, human IgG1, kappa, L234A L235A)
heavy: not shown
light: B12 light with D17Q, A47P
For B14, in assay [1], the “cGMP production: EC50” value came out at 36.6 nM, the “cGMP production: Emax” value was 0.42 and the “cGMP production: Emin” value was 0.068.

B15: Hu127H7L6 (antibody, human IgG1, kappa, L234A L235A)
heavy: not shown
light: B12 light with D17Q, A47P
Consider B15, for which, in assay [1], the “cGMP production: EC50” value is 35.5 nM, the “cGMP production: Emax” value came out at 0.49 and the “cGMP production: Emin” value came out at 0.063.

B16: CHI-102 (antibody, human IgG1, kappa, V domains shown)
VH: DVKLVESGEGLVKPGGSLKLSCAASGFTFSTYAMSWVRQTPEKRLEWVAYISRGGDYIYYADTVKGRFTISRDNARNTLYLQMSSLKSEDTAMYYCTRDQTTVVVHWYFDVWGTGTTVTVSS
VL: QIVLTQSPAIMSASPGEKVTMTCSASSSINYMHWYQQKPGTSPKRWIYDTSKLASGVPARFSGSGSGTSYSLTISSMEAGDAATYYCHQRNSYTFGGGTKLEIKR
Consider B16, for which, in assay [2], the “cGMP production: EC50” value was found to be 54.9 nM, the “cGMP production: Emax” value was determined as 0.57 and the “cGMP production: Emin” value stood at 0.23.

B17: Hu102H3L6 (antibody, human IgG1, kappa, L234A L235A, V domains shown)
VH: B7 VH with G33A
VL: B7 VL
Take B17: in assay [2], the “cGMP production: EC50” value was determined as 48.5 nM, the “cGMP production: Emax” value is 0.61 and the “cGMP production: Emin” value stood at 0.16.
